T1: Kindlin-2 (human, UniProt Q96AC1 1-680)
T1 sequence: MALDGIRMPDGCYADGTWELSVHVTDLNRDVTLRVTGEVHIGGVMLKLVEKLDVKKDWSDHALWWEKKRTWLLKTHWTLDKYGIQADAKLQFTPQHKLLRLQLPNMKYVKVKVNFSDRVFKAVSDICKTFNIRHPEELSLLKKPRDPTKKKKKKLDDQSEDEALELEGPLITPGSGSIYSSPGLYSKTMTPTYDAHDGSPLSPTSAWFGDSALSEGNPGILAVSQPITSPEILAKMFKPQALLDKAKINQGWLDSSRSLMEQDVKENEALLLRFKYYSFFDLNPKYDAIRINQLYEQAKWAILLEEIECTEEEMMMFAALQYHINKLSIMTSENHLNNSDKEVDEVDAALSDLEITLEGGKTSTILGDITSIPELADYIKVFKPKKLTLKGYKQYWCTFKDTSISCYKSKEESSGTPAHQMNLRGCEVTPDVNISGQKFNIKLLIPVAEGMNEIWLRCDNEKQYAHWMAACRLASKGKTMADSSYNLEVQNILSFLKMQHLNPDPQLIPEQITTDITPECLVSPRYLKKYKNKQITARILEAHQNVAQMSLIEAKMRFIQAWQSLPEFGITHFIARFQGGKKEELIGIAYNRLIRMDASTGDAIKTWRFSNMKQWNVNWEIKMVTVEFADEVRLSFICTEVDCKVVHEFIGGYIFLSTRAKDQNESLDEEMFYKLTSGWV

B1: Ras suppressor-1 (Rsu-1), wild type (natural protein)
chain: MSKSLKKLVEESREKNQPEVDMSDRGISNMLDVNGLFTLSHITQLVLSHNKLTMVPPNIAELKNLEVLNFFNNQIEELPTQISSLQKLKHLNLGMNRLNTLPRGFGSLPALEVLDLTYNNLSENSLPGNFFYLTTLRALYLSDNDFEILPPDIGKLTKLQILSLRDNDLISLPKEIGELTQLKELHIQGNRLTVLPPELGNLDLTGQKQVFKAENNPWVTPIADQFQLGVSHVFEYIRSETYKYLYGRHMQANPEPPKKNNDKSKKISRKPLAAKNR
B2: PINCH-2 LIM5S (size exclusion) (domain or fragment)
chain: GDVCYNCSHVIEGDVVSALNKAWCVSCFSCSTCNSKLTLKNKFVEFDMKPVCKRCYEKFPLELKKRLKKLSELTSRK
B3: Integrin linked kinase (ILK), subunit of the IPP complex (natural protein)
chain: MDDIFTQCREGNAVAVRLWLDNTENDLNQGDDHGFSPLHWACREGRSAVVEMLIMRGARINVMNRGDDTPLHLAASHGHRDIVQKLLQYKADINAVNEHGNVPLHYACFWGQDQVAEDLVANGALVSICNKYGEMPVDKAKAPLRELLRERAEKMGQNLNRIPYKDTFWKGTTRTRPRNGTLNKHSGIDFKQLNFLTKLNENHSGELWKGRWQGNDIVVKVLKVRDWSTRKSRDFNEECPRLRIFSHPNVLPVLGACQSPPAPHPTLITHWMPYGSLYNVLHEGTNFVVDQSQAVKFALDMARGMAFLHTLEPLIPRHALNSRSVMIDEDMTARISMADVKFSFQCPGRMYAPAWVAPEALQKKPEDTNRRSADMWSFAVLLWELVTREVPFADLSNMEIGMKVALEGLRPTIPPGISPHVCKLMKICMNEDPAKRPKFDMIVPILEKMQDK

Assay in all cases: SEC
(In general: SEC sorts molecules by how far they enter the pores of the column.)

The target of test [1] is PINCH-1 (residues 1-325), subunit of the IPP complex (human, UniProt P48059 1-325).
Test [2] concerns the target B1.
For a further test, the target named is T1, Kindlin-2.

Chain of PINCH-1 (residues 1-325), subunit of the IPP complex (P48059 whole entry, the tested form may be a part, one chain of several): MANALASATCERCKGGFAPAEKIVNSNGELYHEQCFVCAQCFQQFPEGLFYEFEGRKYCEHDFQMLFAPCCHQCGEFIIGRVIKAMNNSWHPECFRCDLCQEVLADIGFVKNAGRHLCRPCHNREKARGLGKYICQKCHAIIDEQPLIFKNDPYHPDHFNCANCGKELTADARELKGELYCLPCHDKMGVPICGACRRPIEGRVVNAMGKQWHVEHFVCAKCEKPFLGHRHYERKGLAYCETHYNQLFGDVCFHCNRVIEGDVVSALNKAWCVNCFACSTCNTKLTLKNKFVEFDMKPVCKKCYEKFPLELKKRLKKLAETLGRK

Take B1: the binding result in test [1] is given as “binds”.
As for B2, the binding result in test [2] was “binds”.
For B3, the binding result in the test with Kindlin-2 is reported as “binds”.

The record behind these values is doi:10.1101/2021.02.19.432017 (bioRxiv, 2021).
